This assay addresses SARS-CoV-2 S ectodomain trimer, prefusion-stabilized, 2P variant (Wrapp et al., 2020) (SARS-CoV-2, Wuhan-Hu-1, UniProt P0DTC2, stabilised).

Changes are numbered by the printed parent chain.

B1: C41C3 (antibody, V domains shown)
VH: QVQLQESGPGLVKPSETLSLTCTVSGGSISSYYWSWIRQPPGKGLEWIGYIYYSGSTNYNPSLKSRVTISVDTSKNQFSLKLSSVTAADTAVYYCARAAEYYDFWSGYYRNWFDPWGQGTLVTVSS
VL: not shown
Regarding B1, the binding result is on record as “binds”.

B2: C81D7 (antibody, V domains shown)
VH: not shown
VL: SYELTQPPSVSVAPGKTARITCGGNNIGSKSVHWYQQKPGQAPVLVVYDDSDRPSGIPERFSGSNSGNTATLTISRVEAGDEADYYCQVWDSSSDSWVFGGGTKLTVL
With B2, the binding result was “binds”.

B3: C81E4 (antibody, V domains shown)
VH: QVQLVESGGGVVQPGRSLRLSCEASGFTFSNYAMHWVRQAPGKGLEWVAVISYDGSNKYYADSVKGRFTISRDNSKNTLYLQMNSLRAEDTAVYYCASCGITMVQGAHPDAFDIWGQGTMVTVSS
VL: B2 VL with S29T, S92R, S96H, W97V, V98L
For the molecule B3, the binding result was “binds”.

B4: C83B5 (antibody, V domains shown)
VH: EVQLVQSGAEVKKPGESLRISCKGSGYSFTSYWISWVRQMPGKGLEWMGRIDPSDSYTNYSPSFQGHVTISADKSISTAYLQWSSLKASDTAMYYCARQNYYDSSGHPDAFDIWGQGTMVTVSS
VL: not shown
Regarding B4, the binding result is reported as “binds”.

B5: C83A8 (antibody, V domains shown)
VH: QVQLVQSGAEVKKPGSSVKISCKASGGTFSSNAISWVRQAPGQGLEWMGGIIPILTTTNYAERLQGRVTITADESTSTAYMELSSLRSEDTAVYYCASQGRKSCITVFGVVDLLCYSNGMDVWGQGTTVTVSS
VL: QSALTQPASVSGSPGQSITISCTGTSSDVGGYKYVSWYQHHPGKAPKLMIYDVSNRPSGVSNRFSGSKSGNTASLTISGLQAEDEAEYYCSSFTTSSTLVVFGGGTKLTVL
In the case of B5, the binding result was “binds”.

B6: C81H2 (antibody, V domains shown)
VH: QVQLVQSGSELKKPGASVKVSCKASGYTFTSYAMNWVRQAPGQGLEWMGWINTNTGNPTYAQDFTGRFVFSLDTSVSTAYLQISSLKAEDTAMYYCARGSMITFGGILEPVLQFDYWGQGTLVTVSS
VL: not shown
Regarding B6, the binding result was “binds”.

B7: C12A8 (antibody, V domains shown)
VH: QVQLVQSGAEVKKPGASVKVSCKVSGYTLTELSMHWVRQAPGKGLEWMGGFDPEDGETIYAQKFQGRVTMTEDTSTDTAYMELSSLRSEDTAVYYCATVSWPNYYDGTLYYFDYWGQGTLVTVSS
VL: DIQMTQSPSSLSASVGDRVTITCRASQGIRNDLGWYQQKPGKAPKRLIYAASSLQSGVPSRFRGSGSGTEFTLTISSLQPEDFATYYCLQHYSYPFTFGPGTKVDIK
As to B7, the binding result is “binds”.

B8: C81G1 (antibody, V domains shown)
VH: QVQLVQSGAEVKKPGSSVKVSCKASGGTFSSYGITWVRQAPGQGLEWMGGIIPIFGTANYAQKFQGRVTITADESTSTAYMDLSSLRSEDTAVYYCAILGDDYNDVDYWGQGTLVTVSS
VL: not shown
On to B8, for which the binding result is on record as “binds”.

B9: C18D5 (antibody, V domains shown)
VH: QVQLVQSGAEVKTPGASVKVSCKASGFTFTNYDLNWVRQAPGQGLEWMGWMNPKSGDTRSAQRFQGRVTMTRDTSISTAYMEMNTLRSEDTAVYYCARGRGDYSDDDFPALYLWGQGTLVTVSS
VL: not shown
For B9, the binding result was “binds”.

B10: C81H5 (antibody, V domains shown)
VH: QVQLVQSGAEVRKPGASVKVSCKVSEYTLTELSIHWVRQAPGKGLEWMGGFDPEDGETIYAQKFQGRVTMTEDTSTDTAYMELSSLRSEDTAVYYCATAPAYCPGGVCPRGWFDPWGQGTLVTVSS
VL: QSALTQPRSVSGSPGQSVTISCTGTSSDVGGYNYVSWYQQHPGKAPKLMIYDVSKRPSGVPDRFSGSKSGNTASLTISGLQAEDEADYYCCSYAGSYTYVFGTGTKVTVL
On to B10, for which the binding result is “binds”.

B11: C63D4 (antibody, V domains shown)
VH: EVQLVESGGGLVQPGGSLRLSCAASGFTFSTYEMNWVRQAPGKGLEWVSYISSSGSTISYADSVKGRFTISRDNAKNSLYLQMNSLRAEDTAVYYCARDSPHYDYIWGSYRLRGAFDIWGQGTMVTVSS
VL: QSALTQPPSASGSPGQSVTISCTGTSSDVGGYNYVSWYQQHPGKAPKLMIYEVSKRPSGVPDRFSGSKSGNTASLTVSGLQAEDEADYYCSSYTGSNTLYVFGTGTKVTVL
For B11, the binding result is reported as “binds”.

B12: C81B2 (antibody, V domains shown)
VH: QVQLVQSGAEVKKPGASVKVSCKVSGYTLIELSMHWVRQAPGKGLEWMGGFDPEDGETIYAQKFQGRVTMTEDTSTDTAYMELSSLRSEDTAVYYCATGPSIAVRGWFDPWGQGTLVTVSS
VL: QSVLTQPPSVSAAPGQKVTISCSGSSSNIGNNYVSWYQQLPGTAPKLLIYENNKRPSGIPDRFSGSKSGTSATLGITGLQTGDEADYYCGTWDSSLSAGGVFGGGTKLTVL
For the molecule B12, the binding result is “binds”.

B13: C81G10 (antibody, V domains shown)
VH: B12 VH with I30T, M34I, G99T, P100T, S101V, I102L, V104A, R105A, G106S
VL: QSALTQPASVSGSPGQSITISCTGTNSDVGSYNLVSWYQQHPGKAPKLMIYEGSKRPSGVSNRFSGSKSGNTASLTISGLQAEDEADYYCCSYAGSGTVVFGGGTKLTVL
Take B13: the binding result is given as “binds”.

B14: C81C6 (antibody, V domains shown)
VH: B12 VH with I30T, M70V, G99S, S101A, V104A, R105T, F108L
VL: QSALTQPASVSGSPGQSITISCTGTSSDVGSYNLVSWYQQHPGKAPKLMIYEGNKRPSGVSNRFSGSKSGNTASLTISGLQAEDEADYYCCSYAGSSTHWVFGGGTKLTVL
Turning to B14, the binding result is given as “binds”.

B15: C12D8 (antibody, V domains shown)
VH: EVQLVESGGGLVQPGGSLRLSCAASGFTFSSYWMSWVRQAPGKGLEWVANIKQDGSEKYYVDSVKGRFTISRDNAKNSLYLQMNSLRAEDTAVYYCARDDGLREPFDYWGQGTLVTVSS
VL: not shown
For the molecule B15, the binding result is on record as “binds”.

B16: G32L6 (antibody, V domains shown)
VH: QVQLVQSGAEVKKPGASVKVSCKVSGYTLTELSMHWVRQAPGKGLEWMGGFDPEDGETIYAQKFQGRVTMTEDTSTDTAYMELSTLRSEDTAVYYCATAPAVAGTFENYYYYYGLDVWGQGTTVTVSS
VL: not shown
With B16, the binding result was “binds”.

B17: G32A12 (antibody, V domains shown)
VH: QVQLVQSGAEVKKPGASVKVSCKASGYTFTSYYMHWVRQAPGQGLEWMGIINPSGGSTSYAQKFQGRVTMTRDTSTSTVYMELSSLRSEDTAVYYCARDPTMTTVTTLDDYYYYYGMDVWGQGTTVTVSS
VL: not shown
In the case of B17, the binding result is on record as “binds”.

B18: C81E3 (antibody, V domains shown)
VH: QVQLVESGGGVVQPGRSLRLSCAASGFTFSSYAMHWVRQAPGKGLEWVAVISYDGSNKYYADSVKGRFTISRDNSKNTLYLQMNSLRAEDTAVYYCARVSSMDVLRYFDPLDVWGNGTTVTVSS
VL: SYELTQPPSVSVSPGQTARITCSGDALPKQYAYWYQQKPGQAPVLVIYKDSERPSGIPERFSGSSSGTTVTLTISGVQAEDEADYYCQSADSSGTYHVVFGGGTKLTVL
For the molecule B18, the binding result is “binds”.

For the origin of these results see article PMC8299219 (Cell, 2021).
